Source: patent US20260116991A1
Values joined by “and” are separate entries in the source; they are usually repeats but may differ in a detail not shown here. Equal values may be shown once. Values belong to the substance of their own block, whether it stands above or below them.

Experiments:
[1] = molecular target: human GPC3-His protein (human) (UniProt P51654); test: ELISA, coated human GPC3, antibody 0.1 nM
[2] = molecular target: human GPC3-His protein (human) (UniProt P51654); test: ELISA, coated human GPC3, antibody 10 nM
[3] = molecular target: human GPC3-His protein (human) (UniProt P51654); test: ELISA, coated human GPC3, antibody 0.01 nM
[4] = molecular target: human GPC3-His protein (human) (UniProt P51654); test: ELISA, coated human GPC3, antibody 1 nM
[5] = molecular target: human GPC3-His protein (human) (UniProt P51654); test: ELISA, coated human GPC3, antibody 0.0001 nM
[6] = molecular target: human GPC3-His protein (human) (UniProt P51654); test: ELISA, coated human GPC3, antibody 100 nM
[7] = molecular target: GPC3 endogenously expressed on HepG2 cells (UniProt P51654); test: FACS on HepG2 cells
[8] = molecular target: human GPC3-His protein (human) (UniProt P51654); test: ELISA, coated human GPC3, antibody 0.001 nM
[9] = molecular target: murine GPC3-His protein (Sino Biological, Cat. No. 50989-M08B) (murine) (UniProt Q8CFZ4); test: ELISA, coated murine GPC3-His
Sequence of murine GPC3-His protein (Sino Biological, Cat. No. 50989-M08B) (murine) (Q8CFZ4 25-558 limits assumed): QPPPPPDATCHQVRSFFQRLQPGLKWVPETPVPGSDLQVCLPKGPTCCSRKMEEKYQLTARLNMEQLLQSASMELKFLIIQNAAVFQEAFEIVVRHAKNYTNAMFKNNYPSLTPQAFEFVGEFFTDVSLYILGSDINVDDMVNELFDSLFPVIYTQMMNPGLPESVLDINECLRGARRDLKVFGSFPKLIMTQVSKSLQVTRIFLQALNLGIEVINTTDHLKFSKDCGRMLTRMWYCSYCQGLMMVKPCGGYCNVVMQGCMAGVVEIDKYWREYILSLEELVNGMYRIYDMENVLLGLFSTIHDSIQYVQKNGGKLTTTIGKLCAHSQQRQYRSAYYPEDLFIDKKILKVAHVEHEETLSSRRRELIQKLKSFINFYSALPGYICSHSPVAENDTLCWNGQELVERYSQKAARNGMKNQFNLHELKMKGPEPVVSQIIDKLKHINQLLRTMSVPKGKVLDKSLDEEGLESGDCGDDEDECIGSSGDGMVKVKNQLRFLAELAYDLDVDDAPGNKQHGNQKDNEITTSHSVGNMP

[10] = molecular target: human GPC3 expressed on CHO-K1 recombinant cells (human) (UniProt P51654); test: FACS on CHO-K1 clone CHOK1-hGPC3.1C3
[11] = molecular target: human GPC3-His protein (Acro, Cat. No. GP3-H52H4) (human) (UniProt P51654); test: ELISA, coated human GPC3-His
[12] = molecular target: human GPC3 expressed on CHO-K1 recombinant cells (human) (UniProt P51654); test: FACS on CHO-K1 clone CHOK1-hGPC3.2B5
[13] = molecular target: GPC3 expressed endogenously on HepG2 cells (UniProt P51654); test: FACS on HepG2 cells, control in the row of T2-23
[14] = molecular target: monkey GPC3-His protein (Acro, Cat. No. GP3-C5225) (monkey); test: ELISA, coated monkey GPC3-His
[15] = molecular target: human GPC3 expressed on CHO-K1 recombinant cells (human) (UniProt P51654); test: FACS on CHO-K1 clone CHOK1-hGPC3.3E9
[16] = molecular target: GPC3 expressed endogenously on HepG2 cells (UniProt P51654); test: FACS on HepG2 cells, control in the row of Y035
[17] = molecular target: GPC3 on HepG2 cells (human) (UniProt P51654); test: FACS on HepG2 cells

- OD450 nm [1]: 0.09 OD450
- OD450 nm [2]: 0.09 OD450
- OD450 nm [3]: 0.09 OD450
- OD450 nm [4]: 0.09 OD450
- OD450 nm [5]: 0.09 OD450
- OD450 nm [6]: 0.11 OD450
- Max MFI [7]: 154 MFI and 258 MFI and 110 MFI
- OD450 nm [8]: 0.09 OD450
Substance: hIgG1 (IgG subtype control, human IgG1) (antibody)

- OD450 at 0.0001 nM antibody [9]: 0.049 OD450
- OD450 at 0.001 nM antibody [9]: 0.051 OD450
- OD450 at 0.01 nM antibody [9]: 0.052 OD450
- OD450 at 0.1 nM antibody [9]: 0.05 OD450
- OD450 at 1 nM antibody [9]: 0.05 OD450
- OD450 at 10 nM antibody [9]: 0.055 OD450
- OD450 at 100 nM antibody [9]: 0.105 OD450
- Mean fluorescence intensity of cells [10]: 19.3 MFI
- OD450 at 0.0001 nM antibody [11]: 0.047 OD450
- OD450 at 0.001 nM antibody [11]: 0.048 OD450
- OD450 at 0.01 nM antibody [11]: 0.048 OD450
- OD450 at 0.1 nM antibody [11]: 0.05 OD450
- OD450 at 1 nM antibody [11]: 0.048 OD450
- OD450 at 10 nM antibody [11]: 0.05 OD450
- OD450 at 100 nM antibody [11]: 0.072 OD450
- Mean fluorescence intensity of cells [12]: 19.3 MFI
- Mean fluorescence intensity of cells [13]: 137 MFI
- OD450 at 0.0001 nM antibody [14]: 0.048 OD450
- OD450 at 0.001 nM antibody [14]: 0.044 OD450
- OD450 at 0.01 nM antibody [14]: 0.044 OD450
- OD450 at 0.1 nM antibody [14]: 0.045 OD450
- OD450 at 1 nM antibody [14]: 0.044 OD450
- OD450 at 10 nM antibody [14]: 0.047 OD450
- OD450 at 100 nM antibody [14]: 0.056 OD450
- Mean fluorescence intensity of cells [15]: 19.3 MFI
- Mean fluorescence intensity of cells [16]: 137 MFI
Substance: hIgG1 (antibody)

- OD450 at 0.0001 nM antibody [9]: 0.06 OD450 nm
- OD450 at 0.001 nM antibody [9]: 0.05 OD450 nm
- OD450 at 0.01 nM antibody [9]: 0.05 OD450 nm
- OD450 at 0.1 nM antibody [9]: 0.06 OD450 nm
- OD450 at 1 nM antibody [9]: 0.05 OD450 nm
- OD450 at 10 nM antibody [9]: 0.06 OD450 nm
- OD450 at 100 nM antibody [9]: 0.12 OD450 nm
Substance: hIgG1 control (antibody)

- Max MFI [17]: 58.8
Substance: hIgG (antibody)
